These results are taken from patent US20240052052A1.

The target in experiment [1] is human CD24 (human) (UniProt P25063). Put plainly: FACS, 5637 cells. (In general: A flow cytometer gives signals particle by particle.)
Experiment [2] has the same target. In words: FACS, MCF7 cells.
Experiment [3] has the same target. Put plainly: FACS, A549 cells.
Experiment [4] shares this target. Put plainly: FACS, Nalm1 cells.
Experiment [5] has the same target. Put plainly: FACS, H1975 cells.
The target is the same in experiment [6]. In words: FACS, HT-29 cells.
Experiment [7] shares this target. In words: FACS, OCI-LY1 cells.
Experiment [8] has the same target. Put plainly: FACS, OCI-LY7 cells.
For experiment [9] the target is unchanged. In words: FACS, SU-DHL6 cells.
Experiment [10] has the same target. Put plainly: FACS, 293F-hCD24 cells.
The target is the same in experiment [11]. Put plainly: FACS, MDA-MB-468 cells.
The target is the same in experiment [12]. Put plainly: FACS, CHOK1-hCD24 cells.

Sequence of human CD24 (human) (P25063 27-59): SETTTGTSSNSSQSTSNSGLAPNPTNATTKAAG

As to mIgG ctrl (antibody), the FACS MFI turned out to be 185 with human CD24 (human) [1]; 187 in the experiment with human CD24 (human) [2]; 167 in the experiment with human CD24 (human) [3]; 175 with human CD24 (human) [4]; 203 with human CD24 (human) [5]; 194 with human CD24 (human) [6]. For the same substance, the FACS MFI amounted to 197 with human CD24 (human) [7]; 186 with human CD24 (human) [8]; 188 in the experiment with human CD24 (human) [9]; 185 in the experiment with human CD24 (human) [10]; 190 in the experiment with human CD24 (human) [11]; 177 in the experiment with human CD24 (human) [12]. The Max MFI with human CD24 (human) [1] was 185; with human CD24 (human) [2], 187; with human CD24 (human) [3], 167; with human CD24 (human) [4] it was 175; with human CD24 (human) [5] it was 203; with human CD24 (human) [6], 194. The Max MFI in the experiment with human CD24 (human) [10] was 185; with human CD24 (human) [11], 190; with human CD24 (human) [12], 189.
